Read-outs that look alike come from different tables or passages of the source.
Tests used:
[1] = biological target: T1, human pIgR, full-length, on cells (human, UniProt P01833 19-764); assay: cell-based or functional assay
[2] = biological target: T1, human pIgR, full-length, on cells; assay: cell-based or functional assay; remark: listed apart in the source
[3] = biological target: T1, human pIgR, full-length, on cells; assay: cell-based or functional assay; remark: listed apart in the source
[4] = biological target: T1, human pIgR, full-length, on cells; assay: flow cytometry on MDCK-hpIgR cells
Experimental: (§1) Flow Cytometry was performed as follows. To test whether VHH-mono-Fc molecules recognize cell-surface hpIgR, Madin-Darby canine kidney (MDCK) cells engineered to express full-length hpIgR were used. Cells were cultured in Dulbecco's modified Eagle's medium containing 10% fetal calf serum at 37° C. with 5% CO₂. Cells were split into equal fractions (≈70,000 cells) and incubated with increasing concentrations of VHH-mono-Fc molecules for 30 min at 4 C. […] Cells were washed twice with cold staining buffer, resuspended in running buffer and analyzed with an iQue Screener (IntelliCyt Corporation). Binding was assessed by RL1 (A647) Geomeans from the live cell population and EC50 was calculated by fitting log VHH concentration versus MFI in Prism (Graphpad).

[5] = biological target: T2, human pIgR extracellular domain (ECD) (human, UniProt P01833 19-638); assay: BLI; summary table, repeats Table 1
T2 construct: also called hpIgR ECD
Target sequence in this assay (P01833 other isoform, or with tags, fused parts or gaps): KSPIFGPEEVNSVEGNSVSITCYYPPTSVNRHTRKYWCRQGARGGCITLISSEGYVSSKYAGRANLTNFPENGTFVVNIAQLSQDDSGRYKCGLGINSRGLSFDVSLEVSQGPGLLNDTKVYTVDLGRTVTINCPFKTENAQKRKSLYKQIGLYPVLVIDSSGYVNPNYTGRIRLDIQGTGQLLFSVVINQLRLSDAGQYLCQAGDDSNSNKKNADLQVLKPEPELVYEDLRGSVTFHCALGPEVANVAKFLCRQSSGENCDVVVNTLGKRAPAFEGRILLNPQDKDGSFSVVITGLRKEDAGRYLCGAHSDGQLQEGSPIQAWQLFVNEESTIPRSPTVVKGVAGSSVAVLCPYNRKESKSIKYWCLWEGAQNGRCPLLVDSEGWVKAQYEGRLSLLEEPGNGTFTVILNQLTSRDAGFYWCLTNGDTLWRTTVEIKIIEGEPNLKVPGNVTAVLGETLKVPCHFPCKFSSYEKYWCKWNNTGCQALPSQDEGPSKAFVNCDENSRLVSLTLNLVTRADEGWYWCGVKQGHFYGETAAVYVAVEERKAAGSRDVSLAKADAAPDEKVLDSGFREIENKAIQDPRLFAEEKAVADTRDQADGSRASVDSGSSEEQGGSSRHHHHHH

[6] = biological target: T2, human pIgR extracellular domain (ECD); assay: BLI; summary table, repeats Table 1; remark: listed apart in the source
Target sequence in this assay (P01833 other isoform, or with tags, fused parts or gaps): as above

[7] = biological target: T2, human pIgR extracellular domain (ECD); assay: BLI (Octet), VHH-mono-Fc and hpIgR ectodomain
Target sequence in this assay (P01833 other isoform, or with tags, fused parts or gaps): as above

[8] = biological target: T2, human pIgR extracellular domain (ECD); assay: ECL (MSD), hpIgR-ECD coated, anti-Fc detection
Experimental: (§2) To check whether VHH recognizes a buried epitope on pIgR, EC₅₀ values were measured for VHH-mono-Fc molecules binding to hpIgR-ECD protein by electrochemiluminescence using two different detection antibodies, an anti-Fc antibody and an anti-VHH antibody. pIgR ECD (10 μg/ml in PBS) was coated on high-bind MSD plates for 2 hours at RT with 1000 rpm, incubated with blocking buffer for 1 hour at RT, incubated with VHH-mono-Fc molecules (increasing concentrations in PBS) for 2 hours at RT with 1000 rpm, washed 3× with PBT, incubated with ruthenylated secondary antibody (2 μg/ml in PBS) for 1 hour at RT with 1000 rpm, washed 3× with PBT and read plates in 40 ul reading buffer using the MSD imager. EC50 was calculated by fitting log VHH concentration versus log ECLU in Prism (Graphpad). The increase in EC₅₀ (>50-fold) due to anti-VHH detection was used as a measure to determine whether VHH recognized buried epitope on pIgR.

[9] = biological target: T2, human pIgR extracellular domain (ECD); assay: ECL (MSD), hpIgR-ECD coated, anti-VHH detection
Target sequence in this assay (P01833 other isoform, or with tags, fused parts or gaps): as above
Experimental: as §2

[10] = biological target: T2, human pIgR extracellular domain (ECD); assay: ECL (MSD), anti-VHH detection against anti-Fc detection
Target sequence in this assay (P01833 other isoform, or with tags, fused parts or gaps): as above
Experimental: as §2

[11] = biological target: T2, human pIgR extracellular domain (ECD); assay: BLI (Octet RED384), 1:1 fit, 25 C, PBS
Target sequence in this assay (P01833 other isoform, or with tags, fused parts or gaps): as above

[12] = biological target: T3, human pIgR extracellular domain 4-domain 5 (D4-D5) (human, UniProt P01833 350-565); assay: BLI (Octet RED384), 1:1 fit, 25 C, PBS
T3 construct: HIS-tagged construct made in HEK293 cells; also called hpIgR domains 4-5
T3 chain: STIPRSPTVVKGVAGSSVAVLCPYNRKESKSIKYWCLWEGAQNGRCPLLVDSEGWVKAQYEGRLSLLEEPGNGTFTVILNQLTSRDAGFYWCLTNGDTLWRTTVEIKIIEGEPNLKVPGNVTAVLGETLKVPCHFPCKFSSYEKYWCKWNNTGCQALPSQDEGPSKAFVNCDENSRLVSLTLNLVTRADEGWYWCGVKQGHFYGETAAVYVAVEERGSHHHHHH

[13] = biological target: T1, human pIgR, full-length, on cells; assay: flow cytometry on MDCK-hpIgR cells; summary table, repeats Table 1
Experimental: as §1

[14] = biological target: T1, human pIgR, full-length, on cells; assay: as above; remark: listed apart in the source
[15] = biological target: T2, human pIgR extracellular domain (ECD); assay: BLI (Octet RED384), 1:1 fit, 25 C, PBS; column kdis
[16] = biological target: T3, human pIgR extracellular domain …; assay: as above
hpIgR_D3 [17] = biological target: T4, hpIgR_D3; assay: ECL (MSD) heat map, HIS-tagged construct captured via anti-HIS, anti-human-Fc detection;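 note: VHH-mono-Fc molecules tested at 100 µg/ml for 2 h on captured His-tagged pIgR constructs (10 µg/ml), read-out as electrochemiluminescence units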
T4 construct: HIS-tagged construct from HEK293 cells; also called human pIgR extracellular domain 3 (D3); hD3
Experimental: (§3) A meso-scale discovery (MSD) platform was used for conducting epitope mapping and epitope burial studies. To test the binding of VHH-mono-Fc molecules to purified pIgR protein constructs, Streptavidin MSD plates were coated with a biotinylated anti-HIS antibody (2 μg/ml in PBS) for 1 hour at RT with 1000 rpm, washed 3× with PBT (PBS+0.1% Tween-20), incubated with blocking buffer for 1 hour at RT, incubated with His-tagged pIgR proteins (10 μg/ml in PBS) for 2 hours at RT with 1000 rpm, washed 3× with PBT, incubated with VHH-mono-Fc molecules (100 μg/ml in PBS) for 2 hours at RT with 1000 rpm, washed 3× with PBT, incubated with ruthenylated-anti-human-Fc antibody (2 μg/ml in PBS) for 1 hour at RT with 1000 rpm, washed 3× with PBT and read plates in 40 ul reading buffer using the MSD imager. ECLU values were plotted as a heatmap.
(§4) Binding of VHH-mFc molecules were tested to immobilized pIgR constructs by the electrochemiluminescence method.
T4 HIS-tagged domain construct: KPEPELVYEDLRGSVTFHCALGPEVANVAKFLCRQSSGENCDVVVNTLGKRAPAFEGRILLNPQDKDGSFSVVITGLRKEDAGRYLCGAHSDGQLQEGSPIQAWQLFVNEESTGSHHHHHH

[18] = biological target: T5, human pIgR extracellular domain 2 (D2) (human, UniProt P01833 128-242); assay: as above
T5 construct: HIS-tagged construct made in HEK293 cells; also called hpIgR domain 2
Experimental: as §3, §4

hpIgR_D2-D3 [19] = biological target: T6, hpIgR_D2-D3; assay: as above
T6 construct: HIS-tagged construct from HEK293 cells; also called human pIgR extracellular domain 2-domain 3 (D2-D3); hD2-D3
T6 HIS-tagged domain construct: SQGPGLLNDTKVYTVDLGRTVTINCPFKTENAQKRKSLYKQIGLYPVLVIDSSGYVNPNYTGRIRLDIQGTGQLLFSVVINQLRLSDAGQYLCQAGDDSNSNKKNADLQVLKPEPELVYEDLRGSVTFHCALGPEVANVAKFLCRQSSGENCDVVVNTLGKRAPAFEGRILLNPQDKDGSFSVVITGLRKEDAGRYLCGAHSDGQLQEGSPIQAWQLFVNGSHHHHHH

[20] = biological target: T7, human pIgR extracellular domain 1 (D1) (human, UniProt P01833 19-127); assay: as above
T7 construct: HIS-tagged construct made in HEK293 cells; also called hpIgR domain-1

[21] = biological target: T8, human pIgR extracellular domain 1-domain 2 (D1-D2) (human, UniProt P01833 19-240); assay: as above
T8 construct: HIS-tagged construct made in HEK293 cells

[22] = biological target: T3, human pIgR extracellular domain …; assay: BLI: IgA binding to immobilized HIS-tagged hD4-D5
hD3-D4 = biological target: T9, hD3-D4 (human, UniProt P01833); assay: BLI response heat map (0-1.0 nm), HIS-tagged pIgR construct immobilized
T9 construct: HIS-tagged two-domain construct; also called human pIgR extracellular domain 3-domain 4 (D3-D4)
T9 sequence (P01833 240-459 limits assumed): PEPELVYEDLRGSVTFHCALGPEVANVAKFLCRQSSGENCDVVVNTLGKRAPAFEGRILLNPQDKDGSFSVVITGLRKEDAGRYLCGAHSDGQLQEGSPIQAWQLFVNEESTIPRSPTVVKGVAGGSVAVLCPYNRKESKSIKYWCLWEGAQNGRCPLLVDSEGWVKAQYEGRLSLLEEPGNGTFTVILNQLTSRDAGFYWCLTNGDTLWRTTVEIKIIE

hpIgR_D3 [23] = biological target: T4, hpIgR_D3; assay: as above
hpIgR_D2-D3 [24] = biological target: T6, hpIgR_D2-D3; assay: as above
[25] = biological target: T10, hpIgR domain-1 with teleost fish CDR1 (hD1 tCDR1) (human, UniProt P01833 19-127, limits assumed); assay: as above
T10 construct: CDR-swapped hpIgR domain-1 mutant, HIS-tagged, made in HEK293 cells; not shown: HIS tag

[26] = biological target: T11, hpIgR domain-1 with teleost fish CDR2 (hD1 tCDR2) (human, UniProt P01833 19-127, limits assumed); assay: as above
T11 construct: CDR-swapped hpIgR domain-1 mutant, HIS-tagged, made in HEK293 cells; not shown: HIS tag
T11 chain: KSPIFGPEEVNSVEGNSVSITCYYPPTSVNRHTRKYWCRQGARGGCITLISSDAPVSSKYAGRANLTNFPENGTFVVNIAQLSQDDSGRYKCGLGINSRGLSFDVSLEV

[27] = biological target: T5, human pIgR extracellular domain 2 (D2); assay: as above
[28] = biological target: T12, human pIgR extracellular domain 5 (D5) (human, UniProt P01833 460-565); assay: as above
T12 construct: HIS-tagged construct made in HEK293 cells; also called hpIgR domain 5

[29] = biological target: T3, human pIgR extracellular domain …; assay: BLI: IgA binding to immobilized HIS-tagged hD4-D5; sheet says 'IgA binds hD4-D5 weakly'
[30] = biological target: T7, human pIgR extracellular domain 1 (D1); assay: ECL (MSD) heat map, HIS-tagged construct captured via anti-HIS, anti-human-Fc detection; remark: listed apart in the source
Experimental: as §3, §4

[31] = biological target: T12, human pIgR extracellular domain 5 (D5); assay: as above
Experimental: as §3, §4

[32] = biological target: T5, human pIgR extracellular domain 2 (D2); assay: as above; remark: listed apart in the source
[33] = biological target: T3, human pIgR extracellular domain …; assay: as above

T1 sequence (P01833 19-764): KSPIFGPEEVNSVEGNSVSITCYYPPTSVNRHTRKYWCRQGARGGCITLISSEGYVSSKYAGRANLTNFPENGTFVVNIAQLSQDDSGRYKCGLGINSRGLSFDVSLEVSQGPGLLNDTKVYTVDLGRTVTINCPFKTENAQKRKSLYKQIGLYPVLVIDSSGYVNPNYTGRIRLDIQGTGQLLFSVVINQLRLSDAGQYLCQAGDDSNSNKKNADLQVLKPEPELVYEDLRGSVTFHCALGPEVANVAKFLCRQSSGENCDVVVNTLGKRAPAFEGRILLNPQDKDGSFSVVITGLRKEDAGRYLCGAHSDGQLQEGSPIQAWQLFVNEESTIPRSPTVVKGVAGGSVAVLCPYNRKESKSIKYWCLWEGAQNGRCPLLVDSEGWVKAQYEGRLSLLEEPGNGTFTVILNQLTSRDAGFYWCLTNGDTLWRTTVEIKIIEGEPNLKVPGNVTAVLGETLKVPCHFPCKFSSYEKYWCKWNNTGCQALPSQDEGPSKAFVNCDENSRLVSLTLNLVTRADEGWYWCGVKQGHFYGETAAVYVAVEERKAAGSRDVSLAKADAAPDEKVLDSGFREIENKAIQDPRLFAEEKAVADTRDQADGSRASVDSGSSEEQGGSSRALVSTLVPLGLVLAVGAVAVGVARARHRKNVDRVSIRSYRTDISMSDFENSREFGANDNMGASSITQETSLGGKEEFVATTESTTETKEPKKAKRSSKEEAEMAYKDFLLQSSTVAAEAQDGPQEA

B1: VHH12-linker-mono-Fc protein (Fc fusion)
chain: QVQLVETGGGLVQAGDSLRLSCAASGRTLSFNTYAMGWFRQAPGKEREFVASITWNGGSTSYADSVKGRFTITRDNAKNTATLRMNSLQPDDTAVYYCAAARYYVSGTYFPANYWGQGTQVTVSSEPKTPKPQPQPQLQPQPNPTTESKSPKSPAPELLGGPSVFLFPPKPKDTLMISRTPEVTCVVVDVSHEDPEVKFNWYVDGVEVHNAKTKPREEQYNSTYRVVSVLTVLHQDWLNGKEYKCKVSNKALPAPIEKTISKAKGQPREPQVYTKPPSREEMTKNQVSLSCLVKGFYPSDIAVEWESNGQPENNYKTTVPVLDSDGSFRLASYLTVDKSRWQQGNVFSCSVMHEALHNHYTQKSLSLSPGK
notes: made in CHO cells; also called VHH12-mono-Fc; hpIgR_266
[1]
  increase in their apical concentration relative to control VHH (MDCK-hpIgR monolayers): > 10 fold
[2]
  Transcytosis (Fold Incr.): 38.6 fold
[3]
  For. Trans. (Fold Incr.): 29.5 fold
  Rev. Trans (Fold Incr.): 11.7 fold
[4]
  EC50: 4.6 nM
[5]
  Kd: 34 nM
[6]
  Kd: 34 nM
[7]
  Kd: 34 nM
[8]
  EC50: 0.5 nM
[9]
  EC50: 0.2 nM
[10]
  Fold change in EC50: 0.4 fold
[11]
  Kd: 43.3 nM
  kon: 38300 M⁻¹ s⁻¹
[12]
  Kd: 73.1 nM
  kon: 38500 M⁻¹ s⁻¹
[13]
  EC50: 4.6 nM
[14]
  EC50: 4.6 nM
[15]
  koff: 0.00166 s⁻¹
[16]
  koff: 0.00281 s⁻¹
hpIgR_D3 [17]
  binding result: no binding (tested: 100 ug/ml (single concentration))
[18]
  binding result: no binding (tested: 100 ug/ml (single concentration))
hpIgR_D2-D3 [19]
  binding result: no binding (tested: 100 ug/ml (single concentration))
[20]
  binding result: no binding (tested: 100 ug/ml (single concentration))
[21]
  binding result: no binding (tested: 100 ug/ml (single concentration))

B2: recombinant dimeric IgA2 construct (antibody)
heavy: QVQLVQSGAEVKKPGSSVKVSCKSSGGTSNNYAISWVRQAPGQGLDWMGGISPIFGSTAYAQKFQGRVTISADIFSNTAYMELNSLTSEDTAVYFCARHGNYYYYSGMDVWGQGTTVTVSSASPTSPKVFPLSLDSTPQDGNVVVACLVQGFFPQEPLSVTWSESGQNVTARNFPPSQDASGDLYTTSSQLTLPATQCPDGKSVTCHVKHYTNPSQDVTVPCPVPPPPPCCHPRLSLHRPALEDLLLGSEANLTCTLTGLRDASGATFTWTPSSGKSAVQGPPERDLCGCYSVSSVLPGCAQPWNHGETFTCTAAHPELKTPLTANITKSGNTFRPEVHLLPPPSEELALNELVTLTCLARGFSPKDVLVRWLQGSQELPREKYLTWASRQEPSQGTTTFAVTSILRVAAEDWKKGDTFSCMVGHEALPLAFTQKTIDRLAGKPTHVNVSVVMAEVDGTCY
light: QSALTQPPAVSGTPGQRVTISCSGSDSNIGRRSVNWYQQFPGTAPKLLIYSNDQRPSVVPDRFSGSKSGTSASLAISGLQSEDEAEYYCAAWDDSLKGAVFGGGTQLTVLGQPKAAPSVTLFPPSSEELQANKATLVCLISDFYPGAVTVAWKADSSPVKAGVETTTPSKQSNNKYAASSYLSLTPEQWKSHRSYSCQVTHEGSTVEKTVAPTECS
chain: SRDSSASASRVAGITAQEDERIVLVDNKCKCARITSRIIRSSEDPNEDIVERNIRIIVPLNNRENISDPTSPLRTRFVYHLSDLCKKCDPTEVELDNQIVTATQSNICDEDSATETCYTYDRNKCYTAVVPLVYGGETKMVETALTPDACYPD
notes: No sentence says outright that they are the dIgA2 of the assays; also called dIgA2; dIgA
[22]
  koff: 0.0801 s⁻¹
  kon: 78400 M⁻¹ s⁻¹
hD3-D4
  binding result: no binding
hpIgR_D3 [23]
  binding result: no binding
hpIgR_D2-D3 [24]
  binding result: no binding
[25]
  binding result: no binding
[26]
  binding result: no binding
[27]
  binding result: no binding
[28]
  binding result: no binding
[29]
  Kd: 1000 nM

B3: VHH1 (Fc fusion)
VHH-linker-mono-Fc chain: QVQLVESGGGLVQAGGSLKLACAAPGLTFSSYRMGWFRQAPGQEREFVAAIDWNGRGTYYRYYADSVKGRSTISRDNAKNTMYLQMNSLKPEDTAVYYCAAGSIDLNWYGGMDYWGQGTQVTVSSEPKTPKPQPQPQLQPQPNPTTESKSPKSPAPELLGGPSVFLFPPKPKDTLMISRTPEVTCVVVDVSHEDPEVKFNWYVDGVEVHNAKTKPREEQYNSTYRVVSVLTVLHQDWLNGKEYKCKVSNKALPAPIEKTISKAKGQPREPQVYTKPPSREEMTKNQVSLSCLVKGFYPSDIAVEWESNGQPENNYKTTVPVLDSDGSFRLASYLTVDKSRWQQGNVFSCSVMHEALHNHYTQKSLSLSPGK
notes: Control VHH; also called mpIgR_011; VHH1-linker-mono-Fc protein
[30]
  binding result: no binding (tested: 100 ug/ml (single concentration))
[31]
  binding result: no binding (tested: 100 ug/ml (single concentration))
[21]
  binding result: no binding (tested: 100 ug/ml (single concentration))
[32]
  binding result: no binding (tested: 100 ug/ml (single concentration))
[33]
  binding result: no binding (tested: 100 ug/ml (single concentration))

Reference: patent US20220324970A1 (Janssen / Centocor, published 2022)
